Assay results: patent US20260232830A1 (JIANGSU HENGRUI PHARMACEUTICALS, published 2026)

What was measured:
[1] = biological target: T1, human MUC1-C on stably transfected cells (human, UniProt P15941 961-1255, limits assumed); test: FACS, HCC827-human-MUC1-C, Test 2
T1 construct: domain: MUC1-C; the cell line of each value is named under assay; also called HCC827-human-MUC1-C cells; CHOK1-human-MUC1-C cells

[2] = biological target: T1, human MUC1-C on stably transfected cells; test: FACS, CHOK1-human-MUC1-C
[3] = biological target: T1, human MUC1-C on stably transfected cells; test: FACS, HCC827-human-MUC1-C
[4] = biological target: T1, human MUC1-C on stably transfected cells; test: FACS, CHOK1-human-MUC1-C; remark: listed apart in the source
[5] = biological target: T1, human MUC1-C on stably transfected cells; test: FACS, HCC827-human-MUC1-C, Test 1
[6] = biological target: T2, human MUC1 as expressed on tumour cell lines (T47D, HCC827, HPAC) (human, UniProt P15941 24-1255); test: FACS, HCC827
T2 construct: whole, on cells; the cell line is named under assay; also called T47D cells; HCC827 cells

[7] = biological target: T2, human MUC1 as expressed on tumour cell …; test: FACS, HPAC
[8] = biological target: T1, human MUC1-C on stably transfected cells; test: FACS, HCC827-human-MUC1-C, Test 2; remark: listed apart in the source
[9] = biological target: T2, human MUC1 as expressed on tumour cell …; test: FACS, T47D

B1: M6-H2L2 (antibody, human IgG1, kappa, V domains shown)
VH: EVQLVQSGAEVKKPGASVKVSCKASGYRFIPYWIEWVRQAPGQGLEWMGEILPGTGRTNYNEKFKGRVTFTADTSTNTVYMELSSLRSEDTAVYYCARYGDDTSGGYYAVDYWGQGTTVTVSS
VL: EIVLTQSPATLSLSPGERATLSCRASESVNILGTNLIHWYQQKPGQAPKLLIYHASNLETGIPARFSGSGSRTDFTLTISSLEPEDFAVYYCLQSRKIPWTFGGGTKVEIKR
notes: humanized, human IgG1
Emax [1]: 92700

B2: M6-H5L3 (antibody, human IgG1, kappa, V domains shown)
VH: EVQLVQSGAEVKKPGASVKVSCKASGYRFIPYWIEWVRERPGHGLEWMGEILPGTGRTNYNEKFKGRVTFTADTSTNTVYMELSSLTSEDTAVYYCARYGEDTSGGYYAVDYWGQGTTVTVSS
VL: DIVMTQSPATLSLSPGERATLSCRASESVNILGTNLIHWYQQKPGQAPKLLIYHASNLETGIPARFSGSGSRTDFTLTISSLEPEDVAVYYCLQSRKIPWTFGGGTKVEIKR
notes: humanized, human IgG1
Emax [1]: 73000

B3: M6-H7L2 (antibody, human IgG1, kappa, V domains shown)
VH: EVQLVQSGAEVKKPGASVKVSCKASGYRFIPYWIEWVRERPGHGLEWMGEILPGTGRTNYNEKFKGRVTFTADTSTNTVYMELSSLTNEDTAVYYCARYGEDTSGGYYAVDYWGQGTTVTVSS
VL: EIVLTQSPATLSLSPGERATLSCRASESVNILGTNLIHWYQQKPGQAPKLLIYHASNLETGIPARFSGSGSRTDFTLTISSLEPEDFAVYYCLQSRKIPWTFGGGTKVEIKR
notes: humanized, human IgG1
Emax [1]: 78400

B4: M6-H7L3 (antibody, human IgG1, kappa, V domains shown)
VH: EVQLVQSGAEVKKPGASVKVSCKASGYRFIPYWIEWVRERPGHGLEWMGEILPGTGRTNYNEKFKGRVTFTADTSTNTVYMELSSLTNEDTAVYYCARYGEDTSGGYYAVDYWGQGTTVTVSS
VL: DIVMTQSPATLSLSPGERATLSCRASESVNILGTNLIHWYQQKPGQAPKLLIYHASNLETGIPARFSGSGSRTDFTLTISSLEPEDVAVYYCLQSRKIPWTFGGGTKVEIKR
notes: humanized, human IgG1
Emax [1]: 48900

B5: F4-1-H1L2 (antibody, human IgG1, kappa, V domains shown)
VH: EVQLVQSGAEVKKPGASVKVSCKASGYTFTDNYINWVRQAPGQRLEYMGWIYPGSGNNKFNEKFKGRVTITVDTSASTAYMELSSLRSEDTAVYYCARDYPFPSYHYGMDYWGQGTTVTVSS
VL: DIQLTQSPSSLSASVGDRVTITCSASSSVSYIHWFQQKPGKAPKLWIYSTSNLASGVPSRFSGSGSGTDFTLTVSSLQPEDFATYYCQQRSSYPPTFGGGTKVEIKR
notes: humanized, human IgG1
Emax [2]: 102000

B6: F4-1-H2L3 (antibody, human IgG1, kappa, V domains shown)
VH: EVQLVQSGAEVKKPGASVKVSCKASGYTFTDNYINWVRQAPGQRLEYIGWIYPGSGNNKFNEKFKGRVTLTVDTSARTAYMELSSLRSEDTAVYYCARDYPFPSYHYGMDYWGQGTTVTVSS
VL: DIQLTQSPSSLSASVGDRVTITCSASSSVSYIHWFQQKPGTSPKLWIYSTSNLASGVPSRFSGSGSGTDFTLTVSSLQPEDFATYYCQQRSSYPPTFGGGTKVEIKR
notes: humanized, human IgG1
Emax [2]: 122000

B7: ChiM4 (antibody, human IgG1, kappa, V domains shown)
VH: QVQLQQSGAELARPGASVKLSCKASGYSFTTYGVPWVKQRTGQGLEWIGDIYPRSGNTYYNEKFKGKATLTADKSSDTVFMELRSLSSEDSAVYFCAREDYDNYPYALDYWGQGTSVTVSS
VL: EIVLTQSPAIIAASPGEKVTITCSASSSVFNMNWYQQKPGSSPKIWIYDISKLASGVPGRFSGSGSGTSFSLTINSMEAEDVGTYYCQQRSFYPPTFGGGTKVEIKR
notes: murine variable regions on human IgG1 constant regions; also called chimeric antibody of M4
Emax [3]: 13200

B8: F4-18-H2L3 (antibody, human IgG1, kappa, V domains shown)
VH: EVQLVQSGAEVKKPGASVKVSCKASGYTFTSYGINWVRQRPGQGLEWIGYIYLGSDYTEYNEKFKGRVTLTSDTSASTAYMELSSLRSEDTAVYYCARSAGSLFAYWGQGTLVTVSS
VL: DIQLTQSPSSLSASVGDRVTITCRASQDIGITLNWLQQKPGKAIKRLIYATSSLDSGVPSRFSGSRSGSDYTLTISSLQPEDFATYYCLQYASSPYTFGGGTKVEIKR
notes: humanized, human IgG1
Emax [4]: 80400

B9: F4-18-H3L4 (antibody, human IgG1, kappa, V domains shown)
VH: EVQLVQSGAEVVKPGASVKMSCKTSGYTFTSYGINWVRQRPGQGLEWIGYIYLGSDYTEYNEKFKGRVTLTSDTSASTAYMELSSLRSEDTAVYYCARSAGSLFAYWGQGTLVTVSS
VL: DIQLTQSPSSLSASVGDRVTITCRASQDIGITLNWLQQEPGGAIKRLIYATSSLDSGVPKRFSGSRSGSDYTLTISSLQPEDFATYYCLQYASSPYTFGGGTKVEIKR
notes: humanized, human IgG1
Emax [4]: 73400

B10: ChiF4-18 (antibody, human IgG1, kappa, V domains shown)
VH: EVQLQQSGAELVRPGSSVKMSCKTSGYTFTSYGINWVKQRPGQGLEWIGYIYLGSDYTEYNEKFKGKATLTSDTTSSTAYMQLSSLTSEDSAIYFCARSAGSLFAYWGQGTLVTVSA
VL: DIQLTQSPSSLSASLGERVSLTCRASQDIGITLNWLQQEPDGTIKRLIYATSSLDSGVPKRFSGSRSGSDYSLTISSLESEDFVDYYCLQYASSPYTFGGGTKLEIKR
notes: murine variable regions on human IgG1 constant regions; also called chimeric antibody of F4-18
Emax [3]: 20900

B11: M4-H1L2 (antibody, human IgG1, kappa)
heavy: not shown
light: DIVMTQSPSSLSASVGDRVTITCSASSSVFNMNWYQQKPGKSPKLWIYDISKLASGVPSRFSGSGSGTDFTLTISSLQPEDFATYYCQQRSFYPPTFGGGTKVEIKRTVAAPSVFIFPPSDEQLKSGTASVVCLLNNFYPREAKVQWKVDNALQSGNSQESVTEQDSKDSTYSLSSTLTLSKADYEKHKVYACEVTHQGLSSPVTKSFNRGEC
notes: humanized, human IgG1
Emax [5]: 74400

B12: M4H1L1-9-A (antibody, human IgG1, kappa)
heavy: not shown
light: DIQMTQSPSSLSASVGDRVTITCSASSSVFNMNWYQQKPGKSPKLWIYDISKLASGVPSRFSGSGSGTDFTLTISSLQPEDFATYYCQQRSFYPPTFGGGTKVEIKRTVAAPSVFIFPPSDEQLKSGTASVVCLLNNFYPREAKVQWKVDNALQSGNSQESVTEQDSKDSTYSLSSTLTLSKADYEKHKVYACEVTHQGLSSPVTKSFNRGEC
modifications: compound 9-A coupled to reduced cysteines of the antibody (chains and sites not stated), average n=6.6
notes: also called MUC1 monoclonal antibody ADC
Emax [6]: 3690
Emax [7]: 29200

B13: M4-H1L1 (antibody, human IgG1, kappa)
heavy: not shown
light: DIQMTQSPSSLSASVGDRVTITCSASSSVFNMNWYQQKPGKSPKLWIYDISKLASGVPSRFSGSGSGTDFTLTISSLQPEDFATYYCQQRSFYPPTFGGGTKVEIKRTVAAPSVFIFPPSDEQLKSGTASVVCLLNNFYPREAKVQWKVDNALQSGNSQESVTEQDSKDSTYSLSSTLTLSKADYEKHKVYACEVTHQGLSSPVTKSFNRGEC
notes: humanized, human IgG1
Emax [6]: 3630
Emax [7]: 22400
EC50 [8]: 5 nM
Emax [8]: 42300
Emax [9]: 5250

B14: ChiF4-1 (antibody, human IgG1, kappa, V domains shown)
VH: QIQLQQSGPELVKPGASVKISCKASGYTFTDNYINWVKQRPGQGLEYIGWIYPGSGNNKFNEKFKGKATLTVDTSSRTAFMQLSSLTFEDSAVYFCARDYPFPSYHYGMDYWGQGTSVTVSS
VL: QILLTQSPAIMSASPGERVTITCSASSSVSYIHWFQQKPGTSPKLWIYSTSNLASGVPPRFSGSGSGTSFSLTVSRMEAEDAATYYCQQRSSYPPTFGGGTKLEIKR
notes: murine variable regions on human IgG1 constant regions; also called chimeric antibody of F4-1
Emax [3]: 21500
